This is an account of results in IntAct's records for PubMed 25260751.

To fix the notation:
B1: Mitogen-activated protein kinase kinase kinase 1 (Rattus norvegicus (Rat)), Q62925 (parent)
chain: MAAAAGDRASSSGFPGAAAASPEAGGGGGALQGSGAPAAGAGLLRETGSAGRERADWRRQQLRKVRSVELDQLPEQPLFLTASPPCPSTSPSPEPADAAAGASGFQPAAGPPPPGAASRCGSHSAELAAARDSGARSPAGAEPPSAAAPSGREMENKETLKGLHKMDDRPEERMIREKLKATCMPAWKHEWLERRNRRGPVVVKPIPIKGDGSEMSNLAAELQGEGQAGSAAPAPKGRRSPSPGSSPSGRSGKPESPGVRRKRVSPVPFQSGRITPPRRAPSPDGFSPYSPEETSRRVNKVMRARLYLLQQIGPNSFLIGGDSPDNKYRVFIGPQNCSCGRGTFCIHLLFVMLRVFQLEPSDPMLWRKTLKNFEVESLFQKYHSRRSSRIKAPSRNTIQKFVSRMSNCHTLSSSSTSTSSSENSIKDEEEQMCPICLLGMLDEESLTVCEDGCRNKLHHHCMSIWAEECRRNREPLICPLCRSKWRSHDFYSHELSSPVDSPTSLRGVQQPSSPQQPVAGSQRRNQESNFNLTHYGTQQIPPAYKDLAEPWIQAFGMELVGCLFSRNWNVREMALRRLSHDVSGALLLANGESTGTSGGGSGGSLSAGAASGSSQPSISGDVVEAFCSVLSIVCADPVYKVYVAALKTLRAMLVYTPCHSLAERIKLQRLLRPVVDTILVKCADANSRTSQLSISTLLELCKGQAGELAVGREILKAGSIGVGGVDYVLSCILGNQAESNNWQELLGRLCLIDRLLLEISAEFYPHIVSTDVSQAEPVEIRYKKLLSLLAFALQSIDNSHSMVGKLSRRIYLSSARMVTTVPPLFSKLVTMLSASGSSHFARMRRRLMAIADEVEIAEVIQLGSEDTLDGQQDSSQALAPPRYPESSSLEHTAHVEKTGKGLKATRLSASSEDISDRLAGVSVGLPSSATTEQPKPTVQTKGRPHSQCLNSSPLSPPQLMFPAISAPCSSAPSVPAGSVTDASKHRPRAFVPCKIPSASPQTQRKFSLQFQRTCSENRDSEKLSPVFTQSRPPPSSNIHRAKASRPVPGSTSKLGDASKNSMTLDLNSASQCDDSFGSGSNSGSAVIPSEETAFTPAEDKCRLDVNPELNSSIEDLLEASMPSSDTTVTFKSEVAVLSPEKAESDDTYKDDVNHNQKCKEKMEAEEEEALAIAMAMSASQDALPIVPQLQVENGEDIIIIQQDTPETLPGHTKANEPYREDTEWLKGQQIGLGAFSSCYQAQDVGTGTLMAVKQVTYVRNTSSEQEEVVEALREEIRMMSHLNHPNIIRMLGATCEKSNYNLFIEWMAGASVAHLLSKYGAFKESVVINYTEQLLRGLSYLHENQIIHRDVKGANLLIDSTGQRLRIADFGAAARLASKGTGAGEFQGQLLGTIAFMAPEVLRGQQYGRSCDVWSVGCAIIEMACAKPPWNAEKHSNHLALIFKIASATTAPSIPSHLSPGLRDVALRCLELQPQDRPPSRELLKHPVFRTTW

In this assay the parent is B1. To be noted: with ube2n_human UBE2N.
In the case of L438A;M440A, the “effect of a mutation on the interaction” value is recorded as “disrupting interaction”.
